Source: patent US20190248900A1 (Y BIOLOGICS, published 2019)

T1: ITGA6-Fc
T1 construct: Fc fusion
T1 sequence (P23229 whole entry, species assumed, looked up): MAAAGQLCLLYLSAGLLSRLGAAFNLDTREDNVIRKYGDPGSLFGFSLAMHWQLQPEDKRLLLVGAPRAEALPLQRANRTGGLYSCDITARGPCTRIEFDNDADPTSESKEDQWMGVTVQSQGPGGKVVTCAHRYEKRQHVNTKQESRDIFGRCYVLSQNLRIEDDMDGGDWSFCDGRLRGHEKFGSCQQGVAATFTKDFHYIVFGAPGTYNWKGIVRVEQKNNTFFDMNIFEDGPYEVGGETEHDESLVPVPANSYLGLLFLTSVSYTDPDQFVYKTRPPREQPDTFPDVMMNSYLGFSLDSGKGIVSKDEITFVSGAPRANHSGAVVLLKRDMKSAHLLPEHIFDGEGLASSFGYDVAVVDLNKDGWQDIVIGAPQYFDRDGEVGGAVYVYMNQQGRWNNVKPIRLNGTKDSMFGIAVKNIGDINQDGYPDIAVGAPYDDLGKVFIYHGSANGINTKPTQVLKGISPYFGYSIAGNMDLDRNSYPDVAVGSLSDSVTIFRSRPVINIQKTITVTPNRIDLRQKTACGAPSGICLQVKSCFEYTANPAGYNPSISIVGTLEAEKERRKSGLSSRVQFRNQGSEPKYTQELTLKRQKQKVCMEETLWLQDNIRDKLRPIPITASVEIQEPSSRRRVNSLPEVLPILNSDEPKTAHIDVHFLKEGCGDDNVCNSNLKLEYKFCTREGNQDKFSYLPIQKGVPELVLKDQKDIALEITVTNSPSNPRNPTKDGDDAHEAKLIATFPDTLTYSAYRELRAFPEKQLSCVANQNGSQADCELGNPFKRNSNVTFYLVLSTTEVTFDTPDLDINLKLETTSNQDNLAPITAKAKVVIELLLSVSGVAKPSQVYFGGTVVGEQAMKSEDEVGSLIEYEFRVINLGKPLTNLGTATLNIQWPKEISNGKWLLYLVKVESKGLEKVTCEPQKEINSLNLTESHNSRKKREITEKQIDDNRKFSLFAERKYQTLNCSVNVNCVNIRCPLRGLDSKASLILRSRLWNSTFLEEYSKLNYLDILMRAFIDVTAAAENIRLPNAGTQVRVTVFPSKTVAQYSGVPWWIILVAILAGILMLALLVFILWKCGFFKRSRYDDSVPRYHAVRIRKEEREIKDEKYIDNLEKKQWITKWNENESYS

T2: FZD10 (Homo sapiens (Human), UniProt Q9ULW2 21-225)
T2 sequence: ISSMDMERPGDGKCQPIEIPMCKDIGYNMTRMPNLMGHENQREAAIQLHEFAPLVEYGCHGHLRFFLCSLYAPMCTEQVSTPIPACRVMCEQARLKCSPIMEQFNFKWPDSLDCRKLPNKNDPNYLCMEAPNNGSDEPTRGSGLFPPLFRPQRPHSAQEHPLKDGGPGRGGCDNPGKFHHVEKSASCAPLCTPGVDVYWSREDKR

B1: PD1-52E8 (antibody, V domains shown)
VH: QVQLVQSGGNLVQPGRSLRLSCAASGFTFDDYAMHWVRQAPGKGLEWVSGISWNSGTPGYADSVQGRFTISRDNAKNSLYLQMNSLRAEDTAVYYCARGHNYLDSSYYDYWGQGTLVTVSS
VL: SYELTQPLSLSVAPGQTARITCSGDALSKEYSYWYQQKPGQAPVLVMYKDSERPSGIPERFSGSSSGTTVTLTISGVQAEDEADYYCQSVDSSDTSVVFGGGTKLTVL
notes: scFv-phage in the screening ELISA; whole IgG in the other assays
B2: PD1-45D6 (antibody, V domains shown)
VH: QVQLVESGGGVVQPGRSLRLSCAASGFTFSSYAMHWVRQVPGKGLEWVAVISYDGNDKYYADSVKGRFTISRDNSKNTLYLQMNSLRAEDTAVYYCVPTTFEYWGQGSQVTVSS
VL: DIVMTQTPLSLPVTPGEAASISCRSSQSLLDSDDGKTYLDWYLQKPGQSPQLLIYTLSYRASGVPDRFSGSGSGTEFNLRISRVEAEDVGIYYCMQRVEFPFTFGQGTKLDIK
notes: as for B1
B3: PD1-41C9 (antibody, V domains shown)
VH: QMQLVESGGGVVQPGRSLRLSCAASGFTFSSYAMHWVRQAPGKGLEWVAVISYDGSNKYYADSVKGRFTISRDNSKNTLYLQMNRLRSEDTAVYYCTTTTFDSWGQGTLITVSS
VL: DIVMTQTPLSLPVTPGEAASISCRSSQSLLDSEDGNTYLDWYLQKPGQSPQLLIYTLSHRASGVPDRFSGSGSGTDFTLKISRVAAEDVGLYYCLQRMGFPYTFGQGTKLDIK
notes: as for B1
B4: PD1-49A2 (antibody, V domains shown)
VH: QVQLVESGGGVVQPGRSLRLSCAASGFTFSSYAMHWVRQAPGKGLEWVAVISYDGSNKYYADSVKGRFTISRDNPKNTLYLQMNSLRAEDTAVYYCTTTTFDSWGRGTLVTVSS
VL: DIVMTQSPLSLPVTPGEPASISCRSSQSLFDSDDGNTYLDWYLQKPGQSPQLLIYTLSHRASGVPDRFSGSGSGTDFTLKISRVEAEDVGIYYCLQRMGFPYTFGQGTKVEIK
notes: scFv-phage in the screening ELISA; whole IgG in the other assays; also called Parent 49A2

Columns and labels:
M2-1 [1] = molecular target: T3, M2-1; assay: ELISA, 1 ug/ml
T3 construct: also called PD1 mutant M2-1

M2-2 = molecular target: T4, M2-2; assay: ELISA, 1 ug/ml
T4 construct: also called PD1 mutant M2-2

M3 = molecular target: T5, M3; assay: ELISA, 1 ug/ml
T5 construct: also called PD1 mutant M3

M4 = molecular target: T6, M4; assay: ELISA, 1 ug/ml
T6 construct: also called PD1 mutant M4

M11 = molecular target: T7, M11; assay: ELISA, 1 ug/ml
T7 construct: also called PD1 mutant M11

M5 = molecular target: T8, M5; assay: ELISA, 1 ug/ml
T8 construct: also called PD1 mutant M5

M5-1 = molecular target: T9, M5-1; assay: ELISA, 1 ug/ml
T9 construct: also called PD1 mutant M5-1

M5-2 = molecular target: T10, M5-2; assay: ELISA, 1 ug/ml
T10 construct: also called PD1 mutant M5-2

M6 = molecular target: T11, M6; assay: ELISA, 1 ug/ml
T11 construct: also called PD1 mutant M6

M12 [2] = molecular target: T12, M12; assay: ELISA, 1 ug/ml
T12 construct: also called PD1 mutant M12

M13 = molecular target: T13, M13; assay: ELISA, 1 ug/ml
T13 construct: also called PD1 mutant M13

M14 = molecular target: T14, M14; assay: ELISA, 1 ug/ml
T14 construct: also called PD1 mutant M14

M7 = molecular target: T15, M7; assay: ELISA, 1 ug/ml
T15 construct: also called PD1 mutant M7

M7-1 [3] = molecular target: T16, M7-1; assay: ELISA, 1 ug/ml
T16 construct: also called PD1 mutant M7-1

M7-2 = molecular target: T17, M7-2; assay: ELISA, 1 ug/ml
T17 construct: also called PD1 mutant M7-2

M8 = molecular target: T18, M8; assay: ELISA, 1 ug/ml
T18 construct: also called PD1 mutant M8

M9 = molecular target: T19, M9; assay: ELISA, 1 ug/ml
T19 construct: also called PD1 mutant M9

M10 = molecular target: T20, M10; assay: ELISA, 1 ug/ml
T20 construct: also called PD1 mutant M10

ITGA6-Fc = molecular target: T1, ITGA6-Fc; assay: ELISA, 1 ug/ml
M1 = molecular target: T21, M1; assay: ELISA, 1 ug/ml
T21 construct: also called PD1 mutant M1

M1-1 = molecular target: T22, M1-1; assay: ELISA, 1 ug/ml
T22 construct: also called PD1 mutant M1-1

M1-2 = molecular target: T23, M1-2; assay: ELISA, 1 ug/ml
T23 construct: also called PD1 mutant M1-2

[4] = molecular target: T24, PD1-his (Catalog Number 10377-H08H, Sino Biological Inc.) (UniProt Q15116 25-167); assay: ELISA, 1 ug/ml
T24 construct: bought protein; not shown: His tag
T24 sequence (Q15116 25-167 limits assumed): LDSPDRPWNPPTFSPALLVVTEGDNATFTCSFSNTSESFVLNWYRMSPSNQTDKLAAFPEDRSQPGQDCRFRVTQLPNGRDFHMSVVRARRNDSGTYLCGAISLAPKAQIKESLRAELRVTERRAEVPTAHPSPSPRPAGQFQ

M2-1 [5] = molecular target: T3, M2-1; assay: scFv-phage ELISA
M12 [6] = molecular target: T12, M12; assay: scFv-phage ELISA
M7-1 [7] = molecular target: T16, M7-1; assay: scFv-phage ELISA
FZD10 = molecular target: T2, FZD10; assay: ELISA

Row | Binder | OD490 (M2-1 [1]) | OD490 (M2-2) | OD490 (M3) | OD490 (M4) | OD490 (M11) | OD490 (M5) | OD490 (M5-1) | OD490 (M5-2) | OD490 (M6) | OD490 (M12 [2]) | OD490 (M13) | OD490 (M14) | OD490 (M7) | OD490 (M7-1 [3]) | OD490 (M7-2) | OD490 (M8) | OD490 (M9) | OD490 (M10) | OD490 (ITGA6-Fc) | OD490 (M1) | other results
1 | B1 | 2.9 | 3.4 | 1.5 | 3.7 | 0.2 | 0.5 | 0.3 | 3.5 | 3.4 | 3.2 | 3.9 | 2.6 | 1 | 1.1 | 3.9 | 0.6 | 2.4 | 1 | 0.1 | 1.4 | OD490 (M1-1): 1.5; OD490 (M1-2): 3.6; OD490 [4]: 0.4; OD490 (M2-1 [5]): 2.9; OD490 (M12 [6]): 3.2; OD490 (M7-1 [7]): 1.1
2 | B2 | 3.9 | 3.8 | 3.8 | 3.9 | 0.7 | 3.6 | 3.8 | 3.9 | 3.9 | 3.9 | 4 | 3.9 | 0.5 | 1.3 | 4 | 3.8 | 3.8 | 3.9 | 0.5 | 4 | binding result (FZD10): no binding (tested: 1 ug/ml); OD490 (M1-1): 3.8; OD490 (M1-2): 3.9; OD490 [4]: 3.8; OD490 (M2-1 [5]): 3.9; OD490 (M12 [6]): 3.9; OD490 (M7-1 [7]): 1.3
3 | B3 | 3.4 | 3.2 | 2.3 | 3.2 | 0.9 | 2.3 | 2.8 | 3.6 | 3.6 | 3.1 | 3.6 | 3.5 | 0.8 | 1.2 | 3 | 2.5 | 3.3 | 3.4 | 0.5 | 3.2 | binding result (FZD10): no binding (tested: 1 ug/ml); OD490 (M1-1): 3.1; OD490 (M1-2): 3.2; OD490 [4]: 3.2; OD490 (M2-1 [5]): 3.4; OD490 (M12 [6]): 3.1; OD490 (M7-1 [7]): 1.2
4 | B4 | 3.7 | 3.8 | 3.4 | 3.9 | 0.4 | 1.2 | 0.7 | 3.8 | 3.9 | 3.9 | 3.9 | 3.9 | 0.4 | 0.5 | 2.2 | 3 | 3.7 | 2.6 | 0.2 | 3 | binding result (FZD10): no binding (tested: 1 ug/ml); OD490 (M1-1): 3.4; OD490 (M1-2): 3.8; OD490 [4]: 3.6; OD490 (M2-1 [5]): 3.7; OD490 (M12 [6]): 3.9; OD490 (M7-1 [7]): 0.5
